Source: PMC10942865

T1: β-TrCP, endogenous, Q9Y297
T1 chain: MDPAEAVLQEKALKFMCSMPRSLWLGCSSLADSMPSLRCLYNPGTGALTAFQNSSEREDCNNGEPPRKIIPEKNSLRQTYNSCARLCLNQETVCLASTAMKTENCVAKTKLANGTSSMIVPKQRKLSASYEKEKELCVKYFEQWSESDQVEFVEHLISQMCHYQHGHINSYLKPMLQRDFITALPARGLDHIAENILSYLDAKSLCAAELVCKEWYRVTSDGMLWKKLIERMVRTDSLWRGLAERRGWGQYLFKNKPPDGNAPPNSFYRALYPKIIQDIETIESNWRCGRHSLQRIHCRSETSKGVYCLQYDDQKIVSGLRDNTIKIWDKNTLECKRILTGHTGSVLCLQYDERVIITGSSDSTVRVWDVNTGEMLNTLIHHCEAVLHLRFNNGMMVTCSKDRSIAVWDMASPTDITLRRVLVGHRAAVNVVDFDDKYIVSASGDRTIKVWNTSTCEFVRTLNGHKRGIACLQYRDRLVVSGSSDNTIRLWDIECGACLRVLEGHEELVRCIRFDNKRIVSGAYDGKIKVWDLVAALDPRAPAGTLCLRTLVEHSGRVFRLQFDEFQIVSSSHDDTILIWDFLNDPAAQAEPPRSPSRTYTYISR


Molecular target: T1, β-TrCP, endogenous, Q9Y297
Assay: co-immunoprecipitation (IP against Flag tag, Western blot quantification)
Conditions: chain shown with the change; HEK293T cells, 48 h overexpression, N = 3; parent: est. 1.0; read off a plot

| ratio to parent | Binder |
| --- | --- |
| 0.07 | Flag-PLK4 wt (polo-like kinase 4), full-length, O00444 K41R (protein) MATCIGEKIEDFKVGNLLGKGSFAGVYRAESIHTGLEVAIRMIDKKAMYKAGMVQRVQNEVKIHCQLKHPSILELYNYFEDSNYVYLVLEMCHNGEMNRYLKNRVKPFSENEARHFMHQIITGMLYLHSHGILHRDLTLSNLLLTRNMNIKIADFGLATQLKMPHEKHYTLCGTPNYISPEIATRSAHGLESDVWSLGCMFYTLLIGRPPFDTDTVKNTLNKVVLADYEMPSFLSIEAKDLIHQLLRRNPADRLSLSSVLDHPFMSRNSSTKSKDLGTVEDSIDSGHATISTAITASSSTSISGSLFDKRRLLIGQPLPNKMTVFPKNKSSTDFSSSGDGNSFYTQWGNQETSNSGRGRVIQDAEERPHSRYLRRAYSSDRSGTSNSQSQAKTYTMERCHSAEMLSVSKRSGGGENEERYSPTDNNANIFNFFKEKTSSSSGSFERPDNNQALSNHLCPGKTPFPFADPTPQTETVQQWFGNLQINAHLRKTTEYDSISPNRDFQGHPDLQKDTSKNAWTDTKVKKNSDASDNAHSVKQQNTMKYMTALHSKPEIIQQECVFGSDPLSEQSKTRGMEPPWGYQNRTLRSITSPLVAHRLKPIRQKTKKAVVSILDSEEVCVELVKEYASQEYVKEVLQISSDGNTITIYYPNGGRGFPLADRPPSPTDNISRYSFDNLPEKYWRKYQYASRFVQLVRSKSPKITYFTRYAKCILMENSPGADFEVWFYDGVKIHKTEDFIQVIEKTGKSYTLKSESEVNSLKEEIKMYMDHANEGHRICLALESIISEEERKTRSAPFFPIIIGRKPGSTSSPKALSPPPSVDSNYPTRERASFNRMVMHSAASPTQAPILNPSMVTNEGLGLTTTASGTDISSNSLKDCLPKSAQLLKSVFVKNVGWATQLTSGAVWVQFNDGSQLVVQAGVSSISYTSPNGQTTRYGENEKLPDYIKQKLQCLSSILLMFSNPTPNFH |
| 0.03 | Flag-PLK4 wt (polo-like kinase 4), full-length, O00444 S285A; T289A (protein) MATCIGEKIEDFKVGNLLGKGSFAGVYRAESIHTGLEVAIKMIDKKAMYKAGMVQRVQNEVKIHCQLKHPSILELYNYFEDSNYVYLVLEMCHNGEMNRYLKNRVKPFSENEARHFMHQIITGMLYLHSHGILHRDLTLSNLLLTRNMNIKIADFGLATQLKMPHEKHYTLCGTPNYISPEIATRSAHGLESDVWSLGCMFYTLLIGRPPFDTDTVKNTLNKVVLADYEMPSFLSIEAKDLIHQLLRRNPADRLSLSSVLDHPFMSRNSSTKSKDLGTVEDSIDAGHAAISTAITASSSTSISGSLFDKRRLLIGQPLPNKMTVFPKNKSSTDFSSSGDGNSFYTQWGNQETSNSGRGRVIQDAEERPHSRYLRRAYSSDRSGTSNSQSQAKTYTMERCHSAEMLSVSKRSGGGENEERYSPTDNNANIFNFFKEKTSSSSGSFERPDNNQALSNHLCPGKTPFPFADPTPQTETVQQWFGNLQINAHLRKTTEYDSISPNRDFQGHPDLQKDTSKNAWTDTKVKKNSDASDNAHSVKQQNTMKYMTALHSKPEIIQQECVFGSDPLSEQSKTRGMEPPWGYQNRTLRSITSPLVAHRLKPIRQKTKKAVVSILDSEEVCVELVKEYASQEYVKEVLQISSDGNTITIYYPNGGRGFPLADRPPSPTDNISRYSFDNLPEKYWRKYQYASRFVQLVRSKSPKITYFTRYAKCILMENSPGADFEVWFYDGVKIHKTEDFIQVIEKTGKSYTLKSESEVNSLKEEIKMYMDHANEGHRICLALESIISEEERKTRSAPFFPIIIGRKPGSTSSPKALSPPPSVDSNYPTRERASFNRMVMHSAASPTQAPILNPSMVTNEGLGLTTTASGTDISSNSLKDCLPKSAQLLKSVFVKNVGWATQLTSGAVWVQFNDGSQLVVQAGVSSISYTSPNGQTTRYGENEKLPDYIKQKLQCLSSILLMFSNPTPNFH |
